Reference: the nanobody polyreactivity screen of Harvey et al. (2022)

Assay: yeast display, Sf9 membrane polyspecificity reagent, FACS + sequencing; frameworks hold sequencing errors
Summary of the method: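 Using colony PCR, genes from sorted yeast display clones were amplified, then sequenced on MiSeq at 2 × 250 and filtered by CDR length. The clones had been stained with 10% biotinylated, detergent-solubilized Sf9 membrane reagent for 1 hour at 4 °C and sorted by FACS into low and high (top ~1%) gates on anti-HA and streptavidin fluorescence. Polyreactivity labels come from the gate of origin.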

Sequence | polyreactivity (PSR sort gate)
QVQLVESGGGLVQAGGSLRLSCAASGSIFPYNVMGWYRQAPGKERELVAAISTRGGRTYYADSVKGRFTISRDNAKNTVYLQMNSLNPEDTAVYYCATAGGPYSASGYYWGQGTKVTVSS | high polyreactivity
QVQLVESGGGLVQAGGSLRLSCAASGSIFPYNVMGWYRQAPGKERELVAAITRRGGSTYYADSVKGRFTISRDNAKNTVYLQMNSLKPEDTAVYYCAAVPYPRGKGYDYWGQGTQVTVSS | high polyreactivity
QVQLVESGGGLVQAGGSLRLSCAASGSIFPYYAMGWYRPAPGKERELVAGITSGTRTNYADSVKGRFTISRDNAKNTVYLQMNSLKPEDTAVYYCAAYYRAYRRDYYWGQGTQVTVSS | high polyreactivity
QVQLVESGGGLVQAGGSLRLSCAASGSIFQDYTMGWYRQAPGKDRELVAAITDNGGSTYYADSVKGRFTISRDNAKNTVYLQMNSLKPEDTAVYYCAKDWDYSAPGYYLYGYWGQGTQVTVSS | low polyreactivity
QVQLVESGGGLVQAGGSLRLSCAASGSIFQFSAKGWYRQAPGKERELVAGINTSGGSTYYADSVKGRFTISRDNAKNTVYLQMHSLKPEDTAVYYCMARSRYDTGPQRGYDYWGQGTQVTVSS | low polyreactivity
QVQLVESGGGLVQAGGSLRLSCAASGSIFQFYTMGWYRQAPGKERELVAAISSTGSTNYADSVKGRFTISRDNAKNTVYLQMNSLKPEDTAVYYCAAVGTYLAGYQFDYWGQGTQVTVSS | low polyreactivity
QVQLVESGGGLVQAGGSLRLSCAASGSIFQGNAMGWYRQAPGKERELVAAISSRGGTTYYADSVKGRFTISRDNAKNTVYLQMNSLKPEDTAVYYCARDSGYYWYYRYGYWGQGTQVTVSS | high polyreactivity
QVQLVESGGGLVQAGGSLRLSCAASGSIFQGYAMGWYRQAPGKERELVAAITSSGGSTYYADSVKGRFTISRDNAKNTVYLQMNSLKPEDTAVYYCAARGYSHVASRLYYYWGQGTQVTVSS | high polyreactivity
QVQLVESGGGLVQAGGSLRLSCAASGSIFQGYAMGWYRQAPGKERELVAVITSRVGRTYYADSVKGRFTISRDNAKNTVYLQMNSLKPEDTAVYYCAAKLYGGWYRDFAASGMDYWGQGTQVTVSS | high polyreactivity
QVQLVESGGGLVQAGGSLRLSCAASGSIFQIYAMGWYRQAPGKERELVATISSGGRTTYADSVKGRFTISRDNAKNSVYLQMNSLKPEDTAVYYCAAKLEWLSHYYYWGQGTQVTVSS | low polyreactivity
QVQLVESGGGLVQAGGSLRLSCAASGSIFQKYAMGWYRPAPGKERELVAAISSGGGRTYYADSVKGRFTISRDNAKNTVYLQMNSLKPEDTAVYYCAARGSYTSIFDYWGQGTQVTVSS | high polyreactivity
QVQLVESGGGLVQAGGSLRLSCAASGSIFQLNAMGWYRQAPGKERELVAAITWSGDSTYYADSVKGRFTISRDNAKNTVSLQMNSRKPEDTAVYYCAADVLTTPPPREFEYWGQGTQVTVSS | high polyreactivity
QVQLVESGGGLVQAGGSLRLSCAASGSIFQPNMGWYRQAPGKERELVASITTGTTKYADSVKGRFTISRDNAKNTVYLQMNSLKPEDTAVYYCAADLQATVYLIFGYWGQGTQVTVSS | low polyreactivity
QVQLVESGGGLVQAGGSLRLSCAASGSIFQPYAMGWYRQAPGKEWELVAAISRGGTTYYADSVKGRFTISRDNAKNTVYLQMNSLNPEDTAVYYCAVKGYRYVTRYDYWGQGTQVTVSS | high polyreactivity
QVQLVESGGGLVQAGGSLRLSCAASGSIFQRNAMGWYRQAPGKERELVAAISWSGGSTYYADSVKGRFTISRDNAKNSVSLQMNSVKPEDTAVYYCARYYRPYDWGQGTQVTVSS | high polyreactivity
QVQLVESGGGLVQAGGSLRLSCAASGSIFQSYAKGWYRQAPGKERELVAAISRGGSTYYADSVKGRFTISRDNAKNTVYLQMNSLKPEDTAVYYCAAGSGGGKYLYYYWGQGTQVTVSS | low polyreactivity

Sequence | polyreactivity (PSR sort gate)
QVQLVESGGGLVQAGGSLRLSCAASGSIFQSYAMGWYRQAPGKERELVAAISYSGDGTFYADSVKGRFTISRDNAKNTVYLQMNSLKPEDTAVYYCAASSTGYGGSTYYYWGQGTQVTVSS | low polyreactivity
QVQLVESGGGLVQAGGSLRLSCAASGSIFQYNAMGWYRQAPGKRELVAAINRSGGSTYYADSVKGRFTISRDYAKNTVYLQMNSLKPEDTAVYYCAAVRYDRARGSPYPDRVGVYSWGQGTQVTVSS | high polyreactivity
QVQLVESGGGLVQAGGSLRLSCAASGSIFQYNDMGWYRQQPGKEREFVADISSSGGSTYYADSVKGRFTISRDTAKNTVYLQMNSLKPEDTEVYYCNADPGYDFYRDEYWGQGTQVTVSS | low polyreactivity
QVQLVESGGGLVQAGGSLRLSCAASGSIFQYTMGWYRQAPVKEMELVAAITRSGSSTYYADSVKGRFTISRDNAKNTVYLQMNSLKPEDTAVYYCAHNIRRVLGYGSWGQGTQVTVSS | high polyreactivity
QVQLVESGGGLVQAGGSLRLSCAASGSIFQYYAMGWYRQAPGKERELVAAISSGDTTNYADSVKGRFTISRDNAKNTVYLQMNSLKPEDTAVYYCNAEGGWYDWDDYWGQGTQVTVSS | low polyreactivity
QVQLVESGGGLVQAGGSLRLSCAASGSIFRANAMGWYRQAPGKERELVAAISRRGGNTYYADSVKGRFTISRDNAKNTVYLQMNSLKPEDTAVYYCAADRSEYDYWGQGTQVTVSS | high polyreactivity
QVQLVESGGGLVQAGGSLRLSCAASGSIFRAYAMGWDRQAPGKERELVATISGSGGSRSYADSVKGRFTISRDNAKNTVDLQMNSLKPEDTAVYYCARDRYYKYTSYDYWGQGTQVTVSA | low polyreactivity
QVQLVESGGGLVQAGGSLRLSCAASGSIFRAYAMGWYRQAPGKEMELVAAISSGVSTNYADSVKGRFTISRDNAKNTVYLQMNSLKPEDTAVYYCNTDKYSESYRSYEYWGQGTQVTVSS | low polyreactivity
QVQLVESGGGLVQAGGSLRLSCAASGSIFRAYAMGWYRQAPGKERELVAAISWGGGSTSYADSVKGRFTISRDNAKNTVYLQMNSLNPEDTAVYYCAARFIWPARYYSWGQGTQVTVSS | high polyreactivity
QVQLVESGGGLVQAGGSLRLSCAASGSIFRAYAMGWYRQAPGKERELVAAITGNGARTYYADSVKGRFTISRDNAKNTVYLQMNSLKPEDTAVYYCAKRGNRQHRWWYDYWGQGTQVTVSS | low polyreactivity
QVQLVESGGGLVQAGGSLRLSCAASGSIFRDYVMGWYRQAPGKERELVAAISGNDGSTYYADSVKGRFTISRDNAKNTVYLQMNSLKPEDTAVYYCNADEASTVPQFYSYLDFDYWGQGTQVTVSS | low polyreactivity
QVQLVESGGGLVQAGGSLRLSCAASGSIFRFYAMGWYRQAPWKERELVAGITWSGASTYYADSVKGRFTISRDNAKNTVYLQMNSLKPEDNAVYYCAAKSLIVRYDSWGQGTQVTVSS | high polyreactivity
QVQLVESGGGLVQAGGSLRLSCAASGSIFRGNALGWYRQAPGKERELVAAITGSGGNTYYADSVKGRFTISRDNAKNTVYLQMNSLKPEDTAVYYCNAQRYRVVVYNSHGWQTRNYWGQGTQVTVSS | low polyreactivity
QVQLVESGGGLVQAGGSLRLSCAASGSIFRGNAMGWYRQAPGKERELVAAITYNDGGTYYADSVKGRFTISRDNAKNTVYLQMNSLKPEDTAVYYCAAVGTGNKSILYDYWGQGTQVTVSS | low polyreactivity
QVQLVESGGGLVQAGGSLRLSCAASGSIFRGYGMGWYRQAPGKERELVAANNYSGGSTYYADSVKGRFTISRDNAKNTVYLQMNSLKPEDTAVYYCNKVYYRQRGEYYYWGQGTQVTVSS | high polyreactivity
QVQLVESGGGLVQAGGSLRLSCAASGSIFRGYTMGWYRQAPGKERELFAAISTRGGSTYYADSVKGRFTISRDNAKNTVYLQMNSLKPEDTAVYYCNARSRGRASGYDYWGQGTQVTVSS | high polyreactivity
